According to US20130171217A1, “ENZYMATIC PERACID GENERATION FOR USE IN SKIN CARE PRODUCTS” (E I DU PONT DE NEMOURS AND COMPANY, priority 2010, published 2013):

Assays:
[1] = Perhydrolase activity remaining bound to hair, ABTS assay; assay type: binding, human
Experimental: Ten mg of human hair was submerged in 2 mL of a binding solution containing 50 μg/mL of the Thermotoga maritima perhydrolase targeted to hair via the hair binding peptide HC263 (C277S-HC263; SEQ ID NO: 288; also referred to herein as “HC1121”) in 50 mM pH 7.2 potassium phosphate buffer containing 5% of the test surfactant. The test surfactants were two nonionic surfactants: TWEEN®-20 (Sigma, St Louis, Mo.), and TRITON®-X 100 (Aldrich, St Louis, Mo.), and two ionic surfactants: CHEMBETAINE™ CAD (Cocamidopropyl betaine; Lubrizol, Wickliffe, Ohio) and RHODAPEX® ES-2K (sodium laurel ether sulfate; Rhodia Novecare, Cranbury, N.J.).
Hair was incubated in the binding solution at room temperature (˜22° C.) with gentle agitation for 30 minutes, at which time the solution was removed by aspiration and the hair rinsed with 1% TWEEN®-20 in 50 mM pH 7.2 potassium phosphate buffer. The hair was removed from the tube, blotted dry with paper towel, and transferred to a new set of tubes. The hair was rinsed once with 1% TWEEN®-20 in 50 mM pH 7.2 potassium phosphate buffer and then rinsed three times with 50 mM pH 7.2 potassium phosphate buffer. Perhydrolase activity remaining bound to the hair was determined by the ABTS assay.
The ABTS assay was performed as follows: hair samples treated as described above were transferred to new 2-mL microcentrifuge tubes (Eppendorf Protein LoBind; Eppendorf North America, Hauppauge, N.Y.) To each tube was added 480 μL of PAH buffer (50 mM potassium phosphate, pH 7.2), 14 μL of 39% hydrogen peroxide (Sigma 3410), and 6 μL triacetin (Sigma-Aldrich W200700). The perhydrolase reaction was allowed to proceed for 10 minutes at room temperature (˜22-25° C.). The reaction was stopped by diluting aliquots 10×, 100× and 1000× with 10 mM phosphoric acid. For detection 50 μL of 1 M acetic acid, 50 μL of 40 mg/mL potassium iodide, and 50 μL of 4 mM ABTS (2,2′-azino-bis(3-ethylbenzthiazoline-6-sulphonic acid; Sigma, St Louis, Mo.) were added to 50 μL of the above dilutions. Color was allowed to develop for 10 minutes and read in a spectrophotometer at 405 nm. Values from no-enzyme controls were subtracted to yield values attributable only to enzyme activity. A standard curve of OD 405 nm vs PAA concentration in ppm yielded a conversion factor of 8.75, such that an OD 405 nm of 1.0 corresponded to approximately 8.75 ppm PAA. This value was then multiplied by the appropriate dilution to arrive at the PAA concentration in the perhydrolase reaction.
The Thermotoga maritima perhydrolase targeted to hair via the hair binding peptide HC263 (C277S-HC263; SEQ ID NO: 288) was diluted to 50 μg/mL in a solution of 5% PEG-80 sorbitan laurate in 100 mM citrate-phosphate buffer adjusted to pH 4.9, pH 5.5, pH 6.0, or pH 7.0. Ten mg of human hair was added to 2 mL of the above formulations and incubated with gentle agitation for 5 minutes at room temperature to allow enzyme binding to hair. A no-enzyme control sample was included with each pH. After binding, the binding solution was removed by aspiration and the hair was washed with 2 mL of 1% TWEEN®-20 in 50 mM pH 7.2 potassium phosphate buffer. The hair was removed from the tube, blotted dry with paper towel, and transferred to a new set of tubes. The hair was rinsed once with 1% TWEEN®-20 in 50 mM pH 7.2 potassium phosphate buffer and then rinsed three time with 50 mM pH 7.2 potassium phosphate buffer. Perhydrolase activity remaining bound to the hair was determined by the ABTS assay. The results are given as ppm PAA produced at 10 minutes (after subtraction of the no-enzyme control values)
The Thermotoga maritima perhydrolase targeted to hair via the hair binding peptide HC263 (C277S-HC263; SEQ ID NO: 288) was diluted to 50 μg/mL in a solution of 5% PEG-80 sorbitan laurate in 100 mM citrate-phosphate buffer adjusted to pH 6.0. […]

[2] = Compatibility of perhydrolase with commercial moisturizer lotion, PAA indicator strip; assay type: physicochemical; settings: ~0.1 mg/mL in lotion, room temperature (~21° C.)
Experimental: Lotion “A” was prepared by mixing 0.7667 g of SUAVE® Advanced Therapy Moisturizer (Lot#12148JU41, Unilever, CT) with 40 μL of perhydrolase fusion C277S-HC263 (10 mg/mL) in a 2-mL microfuge using an overhead mixer at 200 rpm for about 3 min. The concentration of C277S-HC263 (SEQ ID NO: 288) was about 0.1 mg/mL in lotion A.
Two control samples, i.e., A-control1 and A-control2, were prepared by replacing perhydrolase (C277S-HC263; SEQ ID NO: 288) with same volume of DI water and 50 mM phosphate buffer (pH 8), respectively.
Solution “B” was made by combining 44 μl of triacetin, 899 μL of 50 mM, pH 8, phosphate buffer, and 57 μL of H2O2 (30 wt %). Solution B was freshly made every time just before running the PAA indicator strip test.
After a predetermined time, 50 μl of lotion “A” and 50 μl of solution “B” were mixed gently for about 1 min. PAA indicator strips were used to test for the presence of PAA in the mixture as described in Example 10.

[3] = 50 μg/mL, pH 6.0, binding 1 min, at 10 minutes

B1: SEQ ID NO: 323: S54V variant of the aryl esterase from Mycobacterium smegmatis fused to hair binding domain HC263 via a flexible linker (protein)
chain: MAKRILCFGDSLTWGWVPVEDGAPTERFAPDVRWTGVLAQQLGADFEVIEEGLVARTTNIDDPTDPRLNGASYLPSCLATHLPLDLVIIMLGTNDTKAYFRRTPLDIALGMSVLVTQVLTSAGGVGTTYPAPKVLVVSPPPLAPMPHPWFQLIFEGGEQKTTELARVYSALASFMKVPFFDAGSVISTDGVDGIHFTEANNRDLGVALAEQVRSLLGPGSGGAGSPGSAGGPGSPSAQSQLPDKHSGLHERAPQRYGPEPEPEPEPIPEPPKEAPVVIEKPKPKPKPKPKPPAHDHKNQKETHQRHAAGSGGGGSPHHHHHH
Which “ppm PAA” value ([1]; 50 μg/mL, binding 1 min, hair with no PAA treatment) does the source give for B1 here?
Its value is 269 ppm.

What about the “ppm PAA” value ([1]; 50 μg/mL, binding 1 min, hair with one PAA treatment (0.2% PAA, 1 hr)) of the same molecule?
Its value is 526 ppm.

What about the “ppm PAA” value ([1]; 50 μg/mL, binding 1 min, hair with two PAA treatments) of the same molecule?
Its value is 702 ppm.

What about the “OD 405nm” value [1, 3] of the same molecule?
The value was 0.237.

What about the Peracetic acid [1, 3] of the same molecule?
Its Peracetic acid is 207 ppm.

B2: C277S-HC263: C277S variant of Thermotoga maritima perhydrolase fused via a flexible linker to hair-binding domain HC263 (protein)
chain: MAFFDLPLEELKKYRPERYEEKDFDEFWEETLAESEKFPLDPVFERMESHLKTVEAYDVTFSGYRGQRIKGWLLVPKLEEEKLPCVVQYIGYNGGRGFPHDWLFWPSMGYICFVMDTRGQGSGWLKGDTPDYPEGPVDPQYPGFMTRGILDPRTYYYRRVFTDAVRAVEAAASFPQVDQERIVIAGGSQGGGIALAVSALSKKAKALLCDVPFLCHFRRAVQLVDTHPYAEITNFLKTHRDKEEIVFRTLSYFDGVNFAARAKIPALFSVGLMDNISPPSTVFAAYNYYAGPKEIRIYPYNNHEGGGSFQAVEQVKFLKKLFEKGGPGSGGAGSPGSAGGPGSPSAQSQLPDKHSGLHERAPQRYGPEPEPEPEPIPEPPKEAPVVIEKPKPKPKPKPKPPAHDHKNQKETHQRHAAGSGGGGSPHHHHHH
With B2 as the molecule, how does the “time perhydrolase activity retained in SUAVE® moisturizer” value [2] read?
Its value is “at least 30 days”.

And the “Perhydrolase Activity Retained on Hair, ppm PAA” value ([1]; 50 μg/mL enzyme bound 30 min in 5% CHEMBETAINE™ CAD)?
The value was 455 ppm.

What about the “Perhydrolase Activity Retained on Hair, ppm PAA” value ([1]; 50 μg/mL enzyme bound 30 min in 5% RHODAPEX® ES-2K) of the same molecule?
The value was 315 ppm.

What about the “Perhydrolase Activity Retained on Hair, ppm PAA” value ([1]; 50 μg/mL enzyme bound 30 min in 5% TRITON®-X 100) of the same molecule?
Its value is 1540 ppm.

What about the “Perhydrolase Activity Retained on Hair, ppm PAA” value ([1]; 50 μg/mL enzyme bound 30 min in 5% TWEEN®-20) of the same molecule?
The value was 2126 ppm.

And the “ppm PAA” value ([1]; 50 μg/mL, 5% PEG-80 sorbitan laurate pH 6.0, binding 10 min, PAA at 10 minutes)?
Its value is 581 ppm.

What about the “Perhydrolase Activity Deposited on Hair, ppm PAA” value (“Perhydrolase Activity Deposited” below) ([1]; 50 μg/mL, 5% PEG-80 sorbitan laurate pH 6.0, binding time 0.5 min) of the same molecule?
Its value is 954 ppm.

What about the “Perhydrolase Activity Deposited” value ([1]; 50 μg/mL, 5% PEG-80 sorbitan laurate, binding 5 min, pH 4.9) of the same molecule?
The value was 437 ppm.

What about the “Perhydrolase Activity Deposited” value ([1]; binding 5 min, pH 5.5) of the same molecule?
Its value is 1312 ppm.

What about the “Perhydrolase Activity Deposited” value ([1]; binding 5 min, pH 6.0) of the same molecule?
Its value is 1137 ppm.

What about the “Perhydrolase Activity Deposited” value ([1]; binding 5 min, pH 7.0) of the same molecule?
The value was 385 ppm.

What about the “values obtained (ABTS assay)” value ([1]; bound in 5% CHEMBETAINE™ CAD) of the same molecule?
The value was 0.52.

And the “values obtained (ABTS assay)” value ([1]; bound in 5% RHODAPEX® ES-2K)?
Its value is 0.36.

And the “values obtained (ABTS assay)” value ([1]; bound in 5% TRITON®-X 100)?
Its value is 1.76.

What about the “values obtained (ABTS assay)” value ([1]; bound in 5% TWEEN®-20) of the same molecule?
Its value is 2.43.

And the “Perhydrolase Activity Deposited” value ([1]; pH 6.0, binding time 1 min)?
The value was 962 ppm.

And the “Perhydrolase Activity Deposited” value ([1]; pH 6.0, binding time 2 min)?
Its value is 988 ppm.

And the “Perhydrolase Activity Deposited” value ([1]; pH 6.0, binding time 5 min)?
Its value is 1093 ppm.
